Patent US20170183403A1 (UNIVERSIT T Z RICH, published 2017)

Legend:
human interleukin-2 = molecular target: T1, human interleukin-2 (human, UniProt P60568 21-153); experiment: SPR, antibody amine-coupled on GLM chip, hIL-2 in solution
T1 construct: also called hIL-2; human IL-2
Description: For this experiment an amine coupling GLM chip was used. The activation of the carboxylic acid groups in the chip was done using a mix of 1-ethyl-3-3-dimethylaminopropyl carbodiimide hydrochlorid (EDC at 0.2 M) and sulfo N-hydroxysulfosuccinimids (s_NHS at 0.05M) at […] for 420 seconds (s). […] Deactivation was followed adding ethanolamine HCl at […] for 300 s. Finally human IL-2 was added at different concentrations (starting from 100 nM and followed by three-fold dilutions) at […], 600 s association, and 240 s dissociation.
In order to characterize the binding properties of the anti-human IL-2 mAbs the binding to human interleukin-2 was tested with surface plasmon resonance binding assays.

Reference peptide no. 49 = molecular target: T2, Reference peptide no. 49; experiment: peptide microarray (RepliTope), 15-mers
T2 construct: second library: peptide 13 with Y(65) to Ala; also called peptide 49
T2 peptide: TRMLTFKFAMPKKAT

Reference peptide no. 58 = molecular target: T3, Reference peptide no. 58; experiment: peptide microarray (RepliTope), 15-mers
T3 construct: second library: peptide 22 with L(92) to Ala; also called peptide 58
T3 peptide: KPLEEVLNAAQSKNF

Reference peptide no. 16 = molecular target: T4, Reference peptide no. 16; experiment: peptide microarray (RepliTope), 15-mers
T4 construct: hIL-2 15-mer, first library, parental Cys replaced by Ser, on microarray; also called peptide 16
T4 peptide: MPKKATELKHLQSLE

Reference peptide no. 60 = molecular target: T5, Reference peptide no. 60; experiment: peptide microarray (RepliTope), 15-mers
T5 construct: second library: peptide 24 with its first Leu replaced by Ala as printed (by count this is L90, not L92); also called peptide 60
T5 peptide: ANLAQSKNFHLRPRD

T1 sequence (P60568 21-153 limits assumed): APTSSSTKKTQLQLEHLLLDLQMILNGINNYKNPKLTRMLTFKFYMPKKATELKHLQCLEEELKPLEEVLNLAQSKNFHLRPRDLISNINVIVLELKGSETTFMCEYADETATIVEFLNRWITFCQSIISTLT

- Kd (human interleukin-2): 1.2 nM
- koff (human interleukin-2): 2.08e-05 s⁻¹
- binding result (Reference peptide no. 49): no binding
- binding result (Reference peptide no. 58): no binding
- binding result (Reference peptide no. 16): no binding
- binding result (Reference peptide no. 60): no binding
B1: NARA1 (antibody, mouse IgG2a, kappa, V domains shown)
VH: QVQLQQSGAELVRPGTSVKVSCKASGYAFTNYLIEWVKQRPGQGLEWIGVINPGSGGTNYNEKFKGKATLTADKSSSTAYMQLSSLTSDDSAVYFCARWRGDGYYAYFDVWGAGTTVTVSS
VL: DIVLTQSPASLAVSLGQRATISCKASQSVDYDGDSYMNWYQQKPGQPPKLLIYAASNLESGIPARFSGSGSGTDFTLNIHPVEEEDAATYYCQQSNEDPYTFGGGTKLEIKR
notes: Mouse monoclonal from hybridoma; Isotype controls used were mouse IgG2a; also called anti-IL2 (NARA1) antibody; monoclonal antibody NARA1
